Test [1] has as its target T1, CEACAM8 (human (species not restated for this …, UniProt P31997)).
T1 sequence: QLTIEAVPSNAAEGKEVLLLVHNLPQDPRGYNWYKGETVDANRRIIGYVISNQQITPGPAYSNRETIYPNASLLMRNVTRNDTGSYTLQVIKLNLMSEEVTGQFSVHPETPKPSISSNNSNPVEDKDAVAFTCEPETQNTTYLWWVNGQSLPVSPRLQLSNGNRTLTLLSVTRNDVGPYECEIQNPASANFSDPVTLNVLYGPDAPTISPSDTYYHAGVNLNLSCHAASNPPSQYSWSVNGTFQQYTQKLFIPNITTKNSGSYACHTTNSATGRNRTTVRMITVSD
Put plainly: ELISA, panel CEACAM8; protein titrated [cont.) f].

For test [2], the target named is T2, CEACAM5 (human (species not restated for this …, UniProt P06731)).
T2 sequence: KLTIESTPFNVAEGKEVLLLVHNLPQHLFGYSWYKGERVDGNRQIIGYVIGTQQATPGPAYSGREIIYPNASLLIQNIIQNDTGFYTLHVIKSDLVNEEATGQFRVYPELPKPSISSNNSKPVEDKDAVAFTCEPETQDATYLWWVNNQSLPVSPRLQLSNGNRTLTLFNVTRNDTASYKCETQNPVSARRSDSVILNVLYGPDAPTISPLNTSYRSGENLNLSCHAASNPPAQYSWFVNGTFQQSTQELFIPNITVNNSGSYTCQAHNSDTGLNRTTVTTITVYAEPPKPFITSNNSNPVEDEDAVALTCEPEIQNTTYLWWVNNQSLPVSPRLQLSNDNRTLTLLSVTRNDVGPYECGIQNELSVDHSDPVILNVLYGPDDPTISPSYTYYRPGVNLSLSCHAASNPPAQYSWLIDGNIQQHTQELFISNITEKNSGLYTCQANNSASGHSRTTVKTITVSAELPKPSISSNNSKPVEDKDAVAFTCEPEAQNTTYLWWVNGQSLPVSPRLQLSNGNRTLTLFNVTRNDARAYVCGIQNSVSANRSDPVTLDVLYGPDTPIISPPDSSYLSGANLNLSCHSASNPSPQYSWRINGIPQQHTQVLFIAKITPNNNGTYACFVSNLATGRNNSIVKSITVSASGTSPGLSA
Put plainly: ELISA, panel CEACAM5; HopQ fragment titrated [cont.) f].

The target of test [3] is T3, recombinant human CEACAM1 N-domain (C1ND; residues 35-142) with C-terminal Strep-Tag II, made in Expi293 cells (human, UniProt P13688 35-142, N-glycosylated (three glycosylation forms beside the non-glycosylated protein)).
T3 construct: range 35-142; also called N-terminal domain of human CEACAM1; huCEACAM1-ND; not shown: C-terminal Strep-Tag II
T3 sequence: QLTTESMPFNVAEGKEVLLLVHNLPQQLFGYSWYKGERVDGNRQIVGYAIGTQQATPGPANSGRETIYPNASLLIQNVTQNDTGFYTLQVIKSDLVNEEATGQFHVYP
The test can be described thus: ELISA, C1ND coated, His-tag detected. (In general: ELISA stands for enzyme-linked immunosorbent assay.)

The target of test [4] is T3, recombinant human CEACAM1 N-domain …. Put plainly: isothermal titration calorimetry, 25 °C; ITC in solution, folded glycosylated C1ND; stoichiometry, not affinity. (In general: ITC needs no label: the signal is the heat of the interaction.)
Test [5] addresses T4, E. coli expressed human CEACAM1 N-domain (Ec-C1ND) with C-terminal His6 tag, non-glycosylated (human, UniProt P13688 35-142).
T4 construct: range 35-142; also called non-glycosylated N-terminal domain of human CEACAM1; hC1ND
T4 sequence: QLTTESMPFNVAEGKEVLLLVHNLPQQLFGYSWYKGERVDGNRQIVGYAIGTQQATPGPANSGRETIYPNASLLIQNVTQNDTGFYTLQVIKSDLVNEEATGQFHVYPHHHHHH
The test can be described thus: ITC; 25 µM Ec-C1ND in the cell titrated with 250 µM HopQ^AD, 25 °C.

Test [6] deals with T3, recombinant human CEACAM1 N-domain …. The test can be described thus: ELISA; C1ND coated, HopQ fragment titrated, α-6×His-HRP detection.
For test [7] the target is unchanged. The test can be described thus: isothermal titration calorimetry, 25 °C; ITC in solution, folded glycosylated C1ND (FIG. 8a).
Test [8] has the same target. The test can be described thus: ITC; 25 µM C1ND in the cell titrated with 250 µM HopQ^AD, 25 °C.

Consider two molecules from patent US20210008207A1 (TECHNISCHE UNIVERSIT T M NCHEN, published 2021).

The term Kd denotes a measure of binding affinity in units of concentration.

B1: HopQ^ADΔID, HopQ^AD in which amino acids 190-218 of the mature protein (the HopQ insertion domain) are replaced by two glycines (other)
chain: AVQKVKNADKVQKLSDTYEQLSRLLTNDNGTNSKTSAQAINQAVNNLNERAKTLAGGTTNSPAYQATLLALRSVLGLWNSMGYAVICGGYTKSPGENNQKDFHYTDENGNGTTINCGGSTNSNGTHSYNGTNTLKADKNVSLSIEQYEKIHEAYQILSKALKQAGLAPLNSKGGGDAQNLLTQAQTIVNTLKDYCPILIAKSSSSNGGTNNANTPSWQTAGGGKNSCATFGAEFSAASDMINNAQKIVQETQQLSANQPKNITQPHNLNLNSPSSLTALAQKMLKNAQSQAEILKLANQVESDFNKLSSGHLKDYIGKCDASAISSANMTMQNQKNNWGNGCAGVEETQSLLKTSAADFNNQTPQINQAQNLANTLIQELGNNPFRNMGMIASSTTNNGAHHHHHH
notes: also called HopQ-ID deletion mutant; mutant HopQ^AD lacking the HopQ-ID
Consider B1, for which, in test [1], the binding result is recorded as “no binding (tested: 10 µg/well)”. The “EC50 (read off the curve)” value in test [2] is around 0.08 µg/well. Also, the “fold reduction of binding affinity against HopQ^AD” value in test [3] is around 10 fold.

B2: HopQ adhesin domain (HopQ^AD), type I HopQ fragment of H. pylori strain G27, residues 37-463 (residu (other)
chain: AVQKVKNADKVQKLSDTYEQLSRLLTNDNGTNSKTSAQAINQAVNNLNERAKTLAGGTTNSPAYQATLLALRSVLGLWNSMGYAVICGGYTKSPGENNQKDFHYTDENGNGTTINCGGSTNSNGTHSYNGTNTLKADKNVSLSIEQYEKIHEAYQILSKALKQAGLAPLNSKGEKLEAHVTTSKYQQDNQTKTTTSVIDTTNDAQNLLTQAQTIVNTLKDYCPILIAKSSSSNGGTNNANTPSWQTAGGGKNSCATFGAEFSAASDMINNAQKIVQETQQLSANQPKNITQPHNLNLNSPSSLTALAQKMLKNAQSQAEILKLANQVESDFNKLSSGHLKDYIGKCDASAISSANMTMQNQKNNWGNGCAGVEETQSLLKTSAADFNNQTPQINQAQNLANTLIQELGNNPFRNMGMIASSTTNNGAHHHHHH
notes: also called HopQ^AD I
On to B2, for which, in test [4], the stoichiometry amounted to 1 HopQ^AD per C1ND. Besides, the values for the dissociation constant (Kd) in test [5] and in test [7] were 417 nM and 296 nM, respectively. The results for the ΔH in test [5] and in test [8] were -16.7 kcal/mol and -13 kcal/mol, respectively. In addition, the ΔS in test [5] was -26.8 cal/mol/deg; in test [8], -13.7 cal/mol/deg. Also, the “EC50 (read off the curve)” value in test [6] was around 0.2 µg/well; in test [2], around 0.04 µg/well. Moreover, in test [1], the binding result was “no binding (tested: 10 µg/well)”.
